According to patent US5478723A, “Method and apparatus for determining the role of cytochrome P450 and related enzymes in the metabolism of drugs and other chemicals” (priority 1993, dated 1995):

B1: CYP2D6: P450 enzyme in frozen human liver (protein, UniProt P10635 1-497, looked up)
Cytochrome P450 2D6: MGLEALVPLAVIVAIFLLLVDLMHRRQRWAARYPPGPLPLPGLGNLLHVDFQNTPYCFDQLRRRFGDVFSLQLAWTPVVVLNGLAAVREALVTHGEDTADRPPVPITQILGFGPRSQGVFLARYGPAWREQRRFSVSTLRNLGLGKKSLEQWVTEEAACLCAAFANHSGRPFRPNGLLDKAVSNVIASLTCGRRFEYDDPRFLRLLDLAQEGLKEESGFLREVLNAVPVLLHIPALAGKVLRFQKAFLTQLDELLTEHRMTWDPAQPPRDLTEAFLAEMEKAKGNPESSFNDENLRIVVADLFSAGMVTTSTTLAWGLLLMILHPDVQRRVQQEIDDVIGQVRRPEMGDQAHMPYTTAVIHEVQRFGDIVPLGVTHMTSRDIEVQGFRIPKGTTLITNLSSVLKDEAVWEKPFRFHPEHFLDAQGHFVKPEAFLPFSAGRRACLGEPLARMELFLFFTSLLQHFSFSVPTGQPRPSHHGVFAFLVSPSPYELCAVPR
B2: CYP1A2: P450 enzyme in frozen human liver (protein, UniProt P05177 2-516, looked up)
Cytochrome P450 1A2: ALSQSVPFSATELLLASAIFCLVFWVLKGLRPRVPKGLKSPPEPWGWPLLGHVLTLGKNPHLALSRMSQRYGDVLQIRIGSTPVLVLSRLDTIRQALVRQGDDFKGRPDLYTSTLITDGQSLTFSTDSGPVWAARRRLAQNALNTFSIASDPASSSSCYLEEHVSKEAKALISRLQELMAGPGHFDPYNQVVVSVANVIGAMCFGQHFPESSDEMLSLVKNTHEFVETASSGNPLDFFPILRYLPNPALQRFKAFNQRFLWFLQKTVQEHYQDFDKNSVRDITGALFKHSKKGPRASGNLIPQEKIVNLVNDIFGAGFDTVTTAISWSLMYLVTKPEIQRKIQKELDTVIGRERRPRLSDRPQLPYLEAFILETFRHSSFLPFTIPHSTTRDTTLNGFYIPKKCCVFVNQWQVNHDPELWEDPSEFRPERFLTADGTAINKPLSEKMMLFGMGKRRCIGEVLAKWEIFLFLAILLQQLEFSVPPGVKVDLTPIYGLTMKHARCEHVQARLRFSIN
B3: CYP2E1: P450 enzyme in frozen human liver (protein, UniProt P05181 1-493, looked up)
Cytochrome P450 2E1: MSALGVTVALLVWAAFLLLVSMWRQVHSSWNLPPGPFPLPIIGNLFQLELKNIPKSFTRLAQRFGPVFTLYVGSQRMVVMHGYKAVKEALLDYKDEFSGRGDLPAFHAHRDRGIIFNNGPTWKDIRRFSLTTLRNYGMGKQGNESRIQREAHFLLEALRKTQGQPFDPTFLIGCAPCNVIADILFRKHFDYNDEKFLRLMYLFNENFHLLSTPWLQLYNNFPSFLHYLPGSHRKVIKNVAEVKEYVSERVKEHHQSLDPNCPRDLTDCLLVEMEKEKHSAERLYTMDGITVTVADLFFAGTETTSTTLRYGLLILMKYPEIEEKLHEEIDRVIGPSRIPAIKDRQEMPYMDAVVHEIQRFITLVPSNLPHEATRDTIFRGYLIPKGTVVVPTLDSVLYDNQEFPDPEKFKPEHFLNENGKFKYSDYFKPFSTGKRVCAGEGLARMELFLLLCAILQHFNLKPLVDPKDIDLSPIHIGFGCIPPRYKLCVIPRS
B4: CYP2A6: P450 enzyme in frozen human liver (protein, UniProt P11509 1-494, looked up)
Cytochrome P450 2A6: MLASGMLLVALLVCLTVMVLMSVWQQRKSKGKLPPGPTPLPFIGNYLQLNTEQMYNSLMKISERYGPVFTIHLGPRRVVVLCGHDAVREALVDQAEEFSGRGEQATFDWVFKGYGVVFSNGERAKQLRRFSIATLRDFGVGKRGIEERIQEEAGFLIDALRGTGGANIDPTFFLSRTVSNVISSIVFGDRFDYKDKEFLSLLRMMLGIFQFTSTSTGQLYEMFSSVMKHLPGPQQQAFQLLQGLEDFIAKKVEHNQRTLDPNSPRDFIDSFLIRMQEEEKNPNTEFYLKNLVMTTLNLFIGGTETVSTTLRYGFLLLMKHPEVEAKVHEEIDRVIGKNRQPKFEDRAKMPYMEAVIHEIQRFGDVIPMSLARRVKKDTKFRDFFLPKGTEVYPMLGSVLRDPSFFSNPQDFNPQHFLNEKGQFKKSDAFVPFSIGKRNCFGEGLARMELFLFFTTVMQNFRLKSSQSPKDIDVSPKHVGFATIPRNYTMSFLPR

Test: Storage stability of P450 enzymes in frozen human liver
Format: physicochemical
Conditions: human liver at -65 to -90 degrees C, up to six months
Text: P450 enzymes in frozen liver microsomes appear to be relatively stable.

Degradation on storage, no detectable degradation:
B1
B2
B3
B4
